The supplement of paper PMC10567573

B1: ZNF649 (parent)
chain: LVAHQRYHTGKTPFVCPECGQPCS

Variants of: B1
Test: protein stability index of a GFP-peptide fusion (GPS, HEK-293T) (PSI 1-6); higher = more stable
Settings: c terminus: a fixed tail appended
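Further: lentivirally expressed fusions sorted by FACS into six bins by GFP to DsRed ratio, PSI derived from sequencing read proportions per bin multiplied by bin number.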

Variant	protein stability index
LVAHTRYHTGKTPFVCPECGQPCS [Q5T]	3.07
LVAHVRYHTGKTPFVCPECGQPCS [Q5V]	1.89
LVAHWRYHTGKTPFVCPECGQPCS [Q5W]	1.16
LVAHYRYHTGKTPFVCPECGQPCS [Q5Y]	2.74
LVAHQAYHTGKTPFVCPECGQPCS [R6A]	3.46
LVAHQCYHTGKTPFVCPECGQPCS [R6C]	4.33
LVAHQDYHTGKTPFVCPECGQPCS [R6D]	3.58
LVAHQEYHTGKTPFVCPECGQPCS [R6E]	3.74
LVAHQFYHTGKTPFVCPECGQPCS [R6F]	2.69
LVAHQGYHTGKTPFVCPECGQPCS [R6G]	3.86
LVAHQHYHTGKTPFVCPECGQPCS [R6H]	4.1
LVAHQIYHTGKTPFVCPECGQPCS [R6I]	3.12
LVAHQKYHTGKTPFVCPECGQPCS [R6K]	3.44
LVAHQLYHTGKTPFVCPECGQPCS [R6L]	2.93
LVAHQMYHTGKTPFVCPECGQPCS [R6M]	3.19
LVAHQNYHTGKTPFVCPECGQPCS [R6N]	3.37
LVAHQPYHTGKTPFVCPECGQPCS [R6P]	3.65
LVAHQQYHTGKTPFVCPECGQPCS [R6Q]	3.6
LVAHQSYHTGKTPFVCPECGQPCS [R6S]	3.96
LVAHQTYHTGKTPFVCPECGQPCS [R6T]	3.48
LVAHQVYHTGKTPFVCPECGQPCS [R6V]	2.98
LVAHQWYHTGKTPFVCPECGQPCS [R6W]	3.1
LVAHQYYHTGKTPFVCPECGQPCS [R6Y]	3.12
LVAHQRAHTGKTPFVCPECGQPCS [Y7A]	3.83

Variant	protein stability index
LVAHQRCHTGKTPFVCPECGQPCS [Y7C]	2.59
LVAHQRDHTGKTPFVCPECGQPCS [Y7D]	4.17
LVAHQREHTGKTPFVCPECGQPCS [Y7E]	4.45
LVAHQRFHTGKTPFVCPECGQPCS [Y7F]	3.2
LVAHQRGHTGKTPFVCPECGQPCS [Y7G]	3.68
LVAHQRHHTGKTPFVCPECGQPCS [Y7H]	3.56
LVAHQRIHTGKTPFVCPECGQPCS [Y7I]	3.21
LVAHQRKHTGKTPFVCPECGQPCS [Y7K]	3.31
LVAHQRLHTGKTPFVCPECGQPCS [Y7L]	2.93
LVAHQRMHTGKTPFVCPECGQPCS [Y7M]	3.67
LVAHQRNHTGKTPFVCPECGQPCS [Y7N]	3.73
LVAHQRPHTGKTPFVCPECGQPCS [Y7P]	4.04
LVAHQRQHTGKTPFVCPECGQPCS [Y7Q]	4.14
LVAHQRRHTGKTPFVCPECGQPCS [Y7R]	2.75
LVAHQRSHTGKTPFVCPECGQPCS [Y7S]	3.18
LVAHQRTHTGKTPFVCPECGQPCS [Y7T]	3.28
LVAHQRVHTGKTPFVCPECGQPCS [Y7V]	3.44
LVAHQRWHTGKTPFVCPECGQPCS [Y7W]	2.38
LVAHQRYATGKTPFVCPECGQPCS [H8A]	3.1
LVAHQRYCTGKTPFVCPECGQPCS [H8C]	3.05
LVAHQRYDTGKTPFVCPECGQPCS [H8D]	3.54
LVAHQRYETGKTPFVCPECGQPCS [H8E]	3.13
LVAHQRYFTGKTPFVCPECGQPCS [H8F]	2.49
LVAHQRYGTGKTPFVCPECGQPCS [H8G]	2.52

Variant	protein stability index
LVAHQRYITGKTPFVCPECGQPCS [H8I]	3.21
LVAHQRYKTGKTPFVCPECGQPCS [H8K]	2.57
LVAHQRYLTGKTPFVCPECGQPCS [H8L]	2.93
LVAHQRYMTGKTPFVCPECGQPCS [H8M]	2.75
LVAHQRYNTGKTPFVCPECGQPCS [H8N]	3.18
LVAHQRYPTGKTPFVCPECGQPCS [H8P]	3.67
LVAHQRYQTGKTPFVCPECGQPCS [H8Q]	3.59
LVAHQRYRTGKTPFVCPECGQPCS [H8R]	2.53
LVAHQRYSTGKTPFVCPECGQPCS [H8S]	2.93
LVAHQRYTTGKTPFVCPECGQPCS [H8T]	3.26
LVAHQRYVTGKTPFVCPECGQPCS [H8V]	3.77
LVAHQRYWTGKTPFVCPECGQPCS [H8W]	2.57
LVAHQRYYTGKTPFVCPECGQPCS [H8Y]	2.69
LVAHQRYHAGKTPFVCPECGQPCS [T9A]	2.77
LVAHQRYHCGKTPFVCPECGQPCS [T9C]	2.65
LVAHQRYHDGKTPFVCPECGQPCS [T9D]	3.77
LVAHQRYHEGKTPFVCPECGQPCS [T9E]	3.7
LVAHQRYHFGKTPFVCPECGQPCS [T9F]	3.62
LVAHQRYHGGKTPFVCPECGQPCS [T9G]	3.53
LVAHQRYHHGKTPFVCPECGQPCS [T9H]	2.6
LVAHQRYHIGKTPFVCPECGQPCS [T9I]	3.77
LVAHQRYHKGKTPFVCPECGQPCS [T9K]	2.52
LVAHQRYHLGKTPFVCPECGQPCS [T9L]	2.92
LVAHQRYHMGKTPFVCPECGQPCS [T9M]	3.16

Variant	protein stability index
LVAHQRYHNGKTPFVCPECGQPCS [T9N]	3.05
LVAHQRYHPGKTPFVCPECGQPCS [T9P]	2.88
LVAHQRYHQGKTPFVCPECGQPCS [T9Q]	3.31
LVAHQRYHRGKTPFVCPECGQPCS [T9R]	2.76
LVAHQRYHSGKTPFVCPECGQPCS [T9S]	3.1
LVAHQRYHVGKTPFVCPECGQPCS [T9V]	3.06
LVAHQRYHWGKTPFVCPECGQPCS [T9W]	2.9
LVAHQRYHYGKTPFVCPECGQPCS [T9Y]	3.31
LVAHQRYHTAKTPFVCPECGQPCS [G10A]	3.15
LVAHQRYHTCKTPFVCPECGQPCS [G10C]	3.44
LVAHQRYHTDKTPFVCPECGQPCS [G10D]	3.96
LVAHQRYHTEKTPFVCPECGQPCS [G10E]	3.57
LVAHQRYHTFKTPFVCPECGQPCS [G10F]	3.44
LVAHQRYHTHKTPFVCPECGQPCS [G10H]	3.24
LVAHQRYHTIKTPFVCPECGQPCS [G10I]	3.5
LVAHQRYHTKKTPFVCPECGQPCS [G10K]	2.83
LVAHQRYHTLKTPFVCPECGQPCS [G10L]	3.64
LVAHQRYHTMKTPFVCPECGQPCS [G10M]	3.44
LVAHQRYHTNKTPFVCPECGQPCS [G10N]	3.37
LVAHQRYHTPKTPFVCPECGQPCS [G10P]	3.09
LVAHQRYHTQKTPFVCPECGQPCS [G10Q]	3.28
LVAHQRYHTRKTPFVCPECGQPCS [G10R]	2.78
